Experimental data: the Human Domainome abundance scans (Beltran et al. 2025)
± gives the uncertainty stated by the source.

Assay: abundance fitness (aPCA) (normalised: wild type 0, dead -1); higher = more abundant; growth selection in yeast, the domain comes from the species named
Conditions: Homo sapiens

Substance	abundance fitness
NEDD4-like E3 ubiquitin-protein ligase WWP2 S487G, O00308	-0.03 ± 0.034
NEDD4-like E3 ubiquitin-protein ligase WWP2 D492W, O00308	-0.319 ± 0.033
NEDD4-like E3 ubiquitin-protein ligase WWP2 Y491P, O00308	-0.003 ± 0.036
NEDD4-like E3 ubiquitin-protein ligase WWP2 F479I, O00308	-0.086 ± 0.07
NEDD4-like E3 ubiquitin-protein ligase WWP2 I441H, O00308	-0.204 ± 0.065
NEDD4-like E3 ubiquitin-protein ligase WWP2 K473T, O00308	-0.097 ± 0.066
NEDD4-like E3 ubiquitin-protein ligase WWP2 T469G, O00308	-0.346 ± 0.054
Transcription factor SOX-11 A111T, P35716	0.039 ± 0.048
NEDD4-like E3 ubiquitin-protein ligase WWP2 R493A, O00308	-0.237 ± 0.12
NEDD4-like E3 ubiquitin-protein ligase WWP2 T455C, O00308	-0.339 ± 0.068
NEDD4-like E3 ubiquitin-protein ligase WWP2 G489F, O00308	-0.028 ± 0.078
NEDD4-like E3 ubiquitin-protein ligase WWP2 D464K, O00308	-0.972 ± 0.11
Transcription factor SOX-11 K91S, P35716	0.081 ± 0.044
NEDD4-like E3 ubiquitin-protein ligase WWP2 A445L, O00308	0 ± 0.039
NEDD4-like E3 ubiquitin-protein ligase WWP2 S481F, O00308	-0.039 ± 0.062
NEDD4-like E3 ubiquitin-protein ligase WWP2 K484A, O00308	-0.073 ± 0.058
NEDD4-like E3 ubiquitin-protein ligase WWP2 T469N, O00308	-0.093 ± 0.072
NEDD4-like E3 ubiquitin-protein ligase WWP2 R493G, O00308	0.041 ± 0.064
NEDD4-like E3 ubiquitin-protein ligase WWP2 V459C, O00308	-0.11 ± 0.065
NEDD4-like E3 ubiquitin-protein ligase WWP2 D492F, O00308	-0.217 ± 0.044
NEDD4-like E3 ubiquitin-protein ligase WWP2 Y491T, O00308	0.039 ± 0.037
NEDD4-like E3 ubiquitin-protein ligase WWP2 S481L, O00308	-0.081 ± 0.053
NEDD4-like E3 ubiquitin-protein ligase WWP2 P488M, O00308	-0.018 ± 0.057

Substance	abundance fitness
NEDD4-like E3 ubiquitin-protein ligase WWP2 L446E, O00308	-0.576 ± 0.051
NEDD4-like E3 ubiquitin-protein ligase WWP2 I441D, O00308	-0.419 ± 0.14
NEDD4-like E3 ubiquitin-protein ligase WWP2 P444T, O00308	0.045 ± 0.063
NEDD4-like E3 ubiquitin-protein ligase WWP2 Y454T, O00308	-0.006 ± 0.057
NEDD4-like E3 ubiquitin-protein ligase WWP2 A490M, O00308	0.033 ± 0.053
NEDD4-like E3 ubiquitin-protein ligase WWP2 T483R, O00308	-0.121 ± 0.056
NEDD4-like E3 ubiquitin-protein ligase WWP2 R476M, O00308	-0.324 ± 0.048
NEDD4-like E3 ubiquitin-protein ligase WWP2 S456V, O00308	-0.208 ± 0.059
NEDD4-like E3 ubiquitin-protein ligase WWP2 H465K, O00308	-0.216 ± 0.064
NEDD4-like E3 ubiquitin-protein ligase WWP2 G489L, O00308	-0.039 ± 0.055
NEDD4-like E3 ubiquitin-protein ligase WWP2 P488N, O00308	0.021 ± 0.051
NEDD4-like E3 ubiquitin-protein ligase WWP2 W450K, O00308	-0.598 ± 0.084
NEDD4-like E3 ubiquitin-protein ligase WWP2 R476H, O00308	-0.4 ± 0.081
NEDD4-like E3 ubiquitin-protein ligase WWP2 R493E, O00308	-0.058 ± 0.063
Transcription factor SOX-11 E69V, P35716	-0.401 ± 0.074
NEDD4-like E3 ubiquitin-protein ligase WWP2 K473M, O00308	0.093 ± 0.08
NEDD4-like E3 ubiquitin-protein ligase WWP2 G449M, O00308	-0.11 ± 0.042
NEDD4-like E3 ubiquitin-protein ligase WWP2 E451K, O00308	-0.472 ± 0.076
NEDD4-like E3 ubiquitin-protein ligase WWP2 D474H, O00308	-0.095 ± 0.097
NEDD4-like E3 ubiquitin-protein ligase WWP2 A490K, O00308	0.007 ± 0.037
NEDD4-like E3 ubiquitin-protein ligase WWP2 R476W, O00308	-0.294 ± 0.045
NEDD4-like E3 ubiquitin-protein ligase WWP2 P447T, O00308	-0.541 ± 0.067
NEDD4-like E3 ubiquitin-protein ligase WWP2 A490P, O00308	-0.128 ± 0.065

Substance	abundance fitness
NEDD4-like E3 ubiquitin-protein ligase WWP2 S487H, O00308	0.111 ± 0.073
NEDD4-like E3 ubiquitin-protein ligase WWP2 R468V, O00308	-0.352 ± 0.036
NEDD4-like E3 ubiquitin-protein ligase WWP2 R468L, O00308	-0.191 ± 0.047
NEDD4-like E3 ubiquitin-protein ligase WWP2 K484N, O00308	-0.056 ± 0.053
NEDD4-like E3 ubiquitin-protein ligase WWP2 Y454H, O00308	-0.306 ± 0.066
NEDD4-like E3 ubiquitin-protein ligase WWP2 F462A, O00308	-1.02 ± 0.067
NEDD4-like E3 ubiquitin-protein ligase WWP2 S487R, O00308	-0.006 ± 0.034
NEDD4-like E3 ubiquitin-protein ligase WWP2 S487Q, O00308	-0.024 ± 0.061
NEDD4-like E3 ubiquitin-protein ligase WWP2 S481R, O00308	-0.042 ± 0.034
NEDD4-like E3 ubiquitin-protein ligase WWP2 D464C, O00308	-0.438 ± 0.074
NEDD4-like E3 ubiquitin-protein ligase WWP2 V459A, O00308	-0.107 ± 0.051
NEDD4-like E3 ubiquitin-protein ligase WWP2 S487W, O00308	-0.149 ± 0.05
NEDD4-like E3 ubiquitin-protein ligase WWP2 N466T, O00308	-0.255 ± 0.063
NEDD4-like E3 ubiquitin-protein ligase WWP2 D474K, O00308	-0.505 ± 0.14
NEDD4-like E3 ubiquitin-protein ligase WWP2 G449E, O00308	-0.167 ± 0.053
NEDD4-like E3 ubiquitin-protein ligase WWP2 M452H, O00308	-0.258 ± 0.066
NEDD4-like E3 ubiquitin-protein ligase WWP2 R493P, O00308	-0.006 ± 0.063
NEDD4-like E3 ubiquitin-protein ligase WWP2 P444Q, O00308	0.065 ± 0.068
NEDD4-like E3 ubiquitin-protein ligase WWP2 Y491E, O00308	0.033 ± 0.064
NEDD4-like E3 ubiquitin-protein ligase WWP2 P475F, O00308	-0.88 ± 0.1
NEDD4-like E3 ubiquitin-protein ligase WWP2 V463W, O00308	-0.414 ± 0.068
NEDD4-like E3 ubiquitin-protein ligase WWP2 S481W, O00308	-0.09 ± 0.035
NEDD4-like E3 ubiquitin-protein ligase WWP2 S456Q, O00308	-0.11 ± 0.066

Substance	abundance fitness
NEDD4-like E3 ubiquitin-protein ligase WWP2 V459M, O00308	-0.07 ± 0.05
NEDD4-like E3 ubiquitin-protein ligase WWP2 G449R, O00308	-0.14 ± 0.047
NEDD4-like E3 ubiquitin-protein ligase WWP2 P444K, O00308	0.098 ± 0.071
NEDD4-like E3 ubiquitin-protein ligase WWP2 V463F, O00308	-0.288 ± 0.039
NEDD4-like E3 ubiquitin-protein ligase WWP2 F462Y, O00308	-0.048 ± 0.081
NEDD4-like E3 ubiquitin-protein ligase WWP2 Y461I, O00308	-0.509 ± 0.086
NEDD4-like E3 ubiquitin-protein ligase WWP2 S456F, O00308	-0.24 ± 0.063
NEDD4-like E3 ubiquitin-protein ligase WWP2 N466Y, O00308	-0.366 ± 0.085
NEDD4-like E3 ubiquitin-protein ligase WWP2 R493I, O00308	-0.502 ± 0.18
NEDD4-like E3 ubiquitin-protein ligase WWP2 G478N, O00308	-0.136 ± 0.068
NEDD4-like E3 ubiquitin-protein ligase WWP2 R476N, O00308	-0.186 ± 0.049
NEDD4-like E3 ubiquitin-protein ligase WWP2 R460D, O00308	-0.169 ± 0.083
NEDD4-like E3 ubiquitin-protein ligase WWP2 G449H, O00308	-0.274 ± 0.087
NEDD4-like E3 ubiquitin-protein ligase WWP2 R476Q, O00308	-0.406 ± 0.074
NEDD4-like E3 ubiquitin-protein ligase WWP2 R476A, O00308	-0.291 ± 0.058
NEDD4-like E3 ubiquitin-protein ligase WWP2 R468W, O00308	-0.336 ± 0.066
NEDD4-like E3 ubiquitin-protein ligase WWP2 P444V, O00308	0.065 ± 0.058
NEDD4-like E3 ubiquitin-protein ligase WWP2 D492A, O00308	-0.174 ± 0.054
NEDD4-like E3 ubiquitin-protein ligase WWP2 T471Q, O00308	-0.291 ± 0.073
NEDD4-like E3 ubiquitin-protein ligase WWP2 Q442Y, O00308	0.033 ± 0.048
